Measurements as given in patent US20050148504A1, “Cysteine protease inhibitor” (priority 2002, published 2005).

Key:
papain [1] = molecular target: papain (UniProt P00784); assay: cell-based or functional assay
papain [2] = molecular target: T1, papain (Carica papaya, UniProt P00784); assay: cysteine protease inhibitory activity, Z-Phe-Arg-MCA fluorescence method (Barrett et al.), papain; assay type: biochemical; parameters: purchased Sigma Co., Ltd
T1 sequence (P00784 134-345): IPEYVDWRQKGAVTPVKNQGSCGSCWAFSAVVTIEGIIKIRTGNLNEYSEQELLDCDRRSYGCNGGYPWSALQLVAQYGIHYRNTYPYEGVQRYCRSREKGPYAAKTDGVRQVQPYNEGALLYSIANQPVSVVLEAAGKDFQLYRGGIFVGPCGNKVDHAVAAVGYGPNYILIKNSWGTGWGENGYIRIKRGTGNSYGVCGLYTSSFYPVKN
Protocol: Casein, a partial peptide of casein, or hydrolysate of casein which can be used for the present invention has inhibitory activity against cysteine proteases such as cathepsin B, L and papain. The cysteine protease inhibitory activity can be determined in accordance with the methods of Barrett et al (Methods in Enzymology, Vol. 80, pp. 535-561, 1981). For example, Z-Phe-Arg-MCA (Benzyloxycarbonyl-L-Phenylalanyl-L-Arginine4-Methyl-Coumaryl-7-Amide: final concentration of […]: manufactured by Peptide Institute, Inc.) is added as a substrate into a solution in which casein, a partial peptide and/or a hydrolysate of casein is dissolved in 0.1 M acetic acid buffer (pH 5.5), and then a cysteine protease (papain in the present Examples: manufactured by Sigma Co., Ltd.) solution (final concentration: 15 units/ml) is added and the whole solution is mixed to allow reaction at 37° C. for 10 minutes. After that, fluorescence intensity (excitation wavelength: 370 nm, emission wavelength: 460 nm) of AMC (7-Amino-4-Methyl-Coumarin) released from the digested substrate is measured with a fluorescence spectrometer (manufactured by Hitachi, Ltd.).
(§1) The inhibitory activity was measured with reference to the method by Barrett et al. (“Methods in Enzymology,” Vol. 80, p 535-561, 1981) as described below. Namely, Z-Phe-Arg-MCA (final concentration of […]: manufactured by Peptide Institute, Inc.) was added as a substrate to a solution containing bovine β-casein peptide mixture dissolved in a 0.1 M acetic acid buffer solution pH 5.5. Then, a cysteine protease (papain in the present test: manufactured by Sigma Co., Ltd.) solution (final concentration: 15 units/ml) was added, the whole solution was mixed and the reaction was carried out at 37° C. for 10 minutes. Subsequently, fluorescence intensity (excitation wavelength: 370 nm, emission wavelength: 460 nm) of AMC released from the digested substrate was measured with a fluorescence spectrometer (manufactured by Hitachi, Ltd.).
Z-Phe-Arg-MCA (final concentration of […]: manufactured by Peptide Institute, Inc.) was added as a substrate into a solution in which a test sample was dissolved in a 0.1 M acetic acid buffer (pH 5.5). Then, a papain solution (final concentration of 15 units/ml) as a cysteine protease solution was added and mixed, and the reaction was performed at 37° C. for 10 minutes. Subsequently, fluorescence intensity (excitation wavelength: 370 nm, emission wavelength: 460 nm) of AMC released from the digested substrate was measured with a fluorescence spectrometer (manufactured by Hitachi, Ltd.).

cathepsin B = cathepsin B (Homo sapiens, UniProt P07858); assay: cysteine protease inhibitory activity, Z-Phe-Arg-MCA fluorescence method, cathepsin B; assay type: biochemical; settings: concentration of 10^−4 M
Protocol: as §1
(§2) A spectrum of cysteine protease-inhibitory activity of a test sample was measured in the same way as that of measuring the cysteine protease-inhibitory activity described in the Test Example 3, using bovine β-casein as a test sample, and papain, cathepsin B and cathepsin L as cysteine proteases.

cathepsin L = cathepsin L (Homo sapiens, UniProt P07711); assay: cysteine protease inhibitory activity, Z-Phe-Arg-MCA fluorescence method, cathepsin L; assay type: biochemical; settings: concentration of 10^−4 M
cathepsin L, sequence (P07711 114-333, species assumed): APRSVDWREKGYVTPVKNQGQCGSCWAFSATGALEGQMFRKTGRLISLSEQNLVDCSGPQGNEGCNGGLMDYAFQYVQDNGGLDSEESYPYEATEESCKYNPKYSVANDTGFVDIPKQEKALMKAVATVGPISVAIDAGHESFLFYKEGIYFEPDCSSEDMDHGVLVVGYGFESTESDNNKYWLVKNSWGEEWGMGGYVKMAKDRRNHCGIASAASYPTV
Protocol: as §1, §2

papain [3] = molecular target: T1, papain; assay: reverse zymography using papain (SDS-polyacrylamide gel containing gelatin); settings: 12.5% SDS-polyacrylamide gel with 0.1% gelatin; papain 37° C. 10 hours; FIG. 1 lane 6

bovine α-casein
concentration at which papain activity is almost inhibited (papain [1]): 100 µM

bovine β-casein peptide: peptide from Leu of 142th residue to His of 160th residue of bovine β-casein (SEQ ID No. 2) (LTDVENLHLPLPLLQSWMH; sig_peptide (1)Oc(15) casein; listed as Bos taurus)
cysteine protease inhibitory activity (papain), in words (papain [2]; papain 15 units/ml, pH 5.5, 37° C. 10 minutes, concentration not given): having inhibitory activity

bovine κ-casein (from UniProt P02668 22-190)
concentration at which papain is completely inhibited (papain [1]): 10 µM

bovine κ-casein: bovine κ-casein used as a test sample
inhibition of papain, in words (papain [2]; concentration of 10^−5 M): completely inhibit

human β-casein peptide: synthesized peptide having amino acid numbers 133 to 151 of SEQ ID No. 1 (human β-casein) (LTDLENLHLPLPLLQPLMQ; sig_peptide (1)Oc(15) casein; listed as Homo Sapiens)
inhibition of papain, in words (papain [2]; concentration of 10^−4 M): completely inhibits
inhibition of protease activity of papain (papain [2]; concentration of 10^−5 M): 65%

B1: human β-casein: human β-casein purified by a conventional procedure, amino acid sequence of SEQ ID No. 1 (Swiss-Prot P05814) (protein, listed as Homo Sapiens)
chain: MKVLILACLVALALARETIESLSSSEESITEYKQKVEKVKHEDQQQGEDEHQDKIYPSFQPQPLIYPFVEPIPYGFLPQNILPLAQPAVVLPVPQPEIMEVPKAKDTVYTKGRVMPVLKSPTIPFFDPQIPKLTDLENLHLPLPLLQPLMQQVPQPIPQTLALPPQPLWSVPQPKVLPIPQQVVPYPQRAVPVQALLLNQELLLNPTHQIYPVTQPLAPVHNPISV
modifications: sig_peptide (1)Oc(15) casein
inhibition of papain, in words (papain [2]; concentration of 10^−5 M): almost completely inhibits

B2: bovine β-casein: β-casein derived from bovine, amino acid sequence of SEQ ID No. 2 (Swiss-Prot P02666) (protein, listed as Bos taurus)
chain: MKVLILACLVALALARELEELNVPGEIVESLSSSEESITRINKKIEKFQSEEQQQTEDELQDKIHPFAQTQSLVYPFPGPIPNSLPQNIPPLTQTPVVVPPFLQPEVMGVSKVKEAMAPKHKEMPFPKYPVEPFTESQSLTLTDVENLHLPLPLLQSWMHQPHQPLPPTVMFPPQSVLSLSQSKVLPVPQKAVPYPQRDMPIQAFLLYQEPVLGPVRGPFPIIV
modifications: sig_peptide (1)Oc(15) casein
inhibition of protease activity of cathepsin B, in words (cathepsin B): almost inhibits
inhibition of protease activity of cathepsin L, in words (cathepsin L): almost inhibits
inhibition of papain, in words (papain [2]; concentration of 10^−5 M): completely inhibits
inhibition of papain, in words (papain [2]; concentration of 10^−5 M, listed as β-casein): completely inhibit
band in reverse zymography using papain (papain [3]): positive band
